Test results reported in paper PMC12002313 (Proceedings of the National Academy of Sciences of the …, 2025).
Where a chain is given by its changes, count along the chain named. Names and notes keep the numbering of the source.

What was measured:
[1] = biological target: PTg (genetically detoxified pertussis toxin) (Bordetella pertussis, UniProt P04978+P04979); type: binding
[2] = biological target: pertussis toxin (PT), enzymatically active holotoxin (Bordetella pertussis, strain of bought …, UniProt P04977;P04978;P04979;P0A3R5;P04981); assay: ELISA
[3] = biological target: pertussis toxin S5 subunit, as it stands in PTg (Bordetella pertussis, UniProt P04981); assay: cryo-EM structure
[4] = biological target: pertussis toxin S2 subunit, as it stands in PTg (Bordetella pertussis, UniProt P04978); assay: cryo-EM structure
[5] = biological target: pertussis toxin S3 subunit, as it stands in PTg (Bordetella pertussis, UniProt P04979); assay: cryo-EM structure

**Q.** `CC(=O)N[C@H]1[C@H]([C@H](O)[C@H](O)CO)O[C@@](O[C@H]2[C@@H](O)[C@@H](CO)O[C@@H](O[C@H]3[C@H](O[C@@H]4O[C@@H](C)[C@@H](O)[C@@H](O)[C@@H]4O)[C@@H](NC(C)=O)C(O)O[C@@H]3CO)[C@@H]2O)(C(=O)O)C[C@@H]1O` (stereo partly drawn) [sialyl Lewis^X blood group antigen, Neu5Acα2-3Galβ1-4(Fucα1-3)GlcNAc] was tested. Which RFU [1] did it give?
**A.** The RFU was “PTg alone binds to sialylated N-glycans, asialo-N-glycans, and other carbohydrates (such as the sialyl Lewis^X”.

B1: hu1B7mut IgG (hu1B7 HC S56A, Q61A, Q64A) (antibody, V domains shown)
VH: QVQLVQSGAEVKKPGASVKVSCKASGYKFTSYWMHWVRQAPGQGLEWIGNIFPGSGATNYAAKFAGRVTLTVDTSTSTAYMELSSLRSEDTAVYYCTRWLSGAYFDYWGQGTTVTVSS
VL: QIVLTQSPATLSVSPGERVTLTCSASSSVSFMYWYQQKPGRAPKPLIYLTSNLPSGVPARFSGSGSGTSYTLTINSLEAEDAATYYCQQWSSHPPTFGSGTKLEIK
**Q.** Does B1 bind [2]?
**A.** Result: binds

B2: hu1B7 IgG (antibody, V domains shown)
VH: B1 VH with A57S, A62Q, A65Q
VL: B1 VL
**Q.** Does B2 bind [2]?
**A.** Result: binds

B3: hu1B7 Fab (Fab, V domains shown)
VH: B1 VH with A57S, A62Q, A65Q
VL: B1 VL
**Q.** Does B3 bind [3]?
**A.** Result: binds

B4: hu11E6 Fab (Fab, V domains shown)
VH: EVQVVESGGGLVQPGRSLRLSCTTSGFTFTDYYVSWVRQAPGKALEWLGFIRNKVNGYTTEFSSSVKGRFTISRDNSKSILYLQMNSLKIEDTAVYYCARVSYYGRGWYFDYWGQGTTLTVSS
VL: DIVMTQSPSSLSASVGDRVTISCRASQDIDNYLSWFQQKPGGTVKLLIYYTSRLHSGVPSRFSGSGSGTDYTLTISSLQPEDIATYFCQQGNTFPWTFGGGTKLEIK
**Q.** Does B4 bind [4]?
**A.** Result: binds

**Q.** Does B4 bind [5]?
**A.** Result: binds
